In article PMC11169542, “A probe for NIR-II imaging and multimodal analysis of early Alzheimer’s disease by targeting CTGF” (Nature Communications, 2024):
Ends that are not written are not given here.

Legend:
U87MG cells = experiment: Cytotoxicity of DGC (CCK-8); format: cell-based, human; parameters: key to Cell viability: viability relative to control cells (control = 1); details: for Cell viability: 24 h, CCK-8, normalized to control
Method: U87MG, SH-SY5Y, and CTX TNA2 cells were seeded into 96-well plates at a density of 5 × 10^3 cells per well and were incubated at 37 °C for 24 h. […] Next, 10 µL of a colorimetric Cell Counting Kit (CCK-8) reagent diluted with 100 µL medium was added to each well, and incubated for 30 min, The absorbance at 450 nm was measured using a microplate reader (Molecular Devices, San Jose, CA, USA). The relative viability was normalized to control cells. The experiment was performed in triplicates.

[1] = ICP-MS of Au in whole brains of DGC-injected mice; format: in vivo, APP/PS1 and WT mice; details: DGC-injected 3-month-old APP/PS1 mice vs WT, n = 3
Method: SH-SY5Y cell, maybe resulting in a similar perception of fluorescence intensity.
Reviewer 1: The ICP-MS of the whole brains from DGC-treated normal or APP/PS1 mice should be quantified, not only brain sections.
NIR-II imaging in Fig. 4 were frozen grinded and digested, and the content of Au in the whole brain was measured by ICP-MS. […]
which was consistent with the results of the NIR -II imaging.
Figure R7. The Au content in brains of DGC -injected 3-month-old APP/PS1 mice and the age- […]
hippo? Is there any experiment or literature to support the content of CTGF at different positions in different periods?
Response: According to previous reports, the expression pattern of CTGF was slightly different in several AD mouse models. The homing of DAG peptide was mainly seen in the cortex of the Tg2576 mice and in the hippocampus of the hAPP-J20 mice (Nat.
Commun. 2017, 8, 1403). A marked increase of CTGF levels in the brains of APP/PS1 transgenic mice were also observed, and is mainly located in the cortical (Mol.
(1 picture or pasted object on this page, not shown here)

CTX TNA2 cells = experiment: Cytotoxicity of DGC (CCK-8); format: cell-based; parameters: key: viability relative to control cells (control = 1); details: 200 μM (Au content), 24 h, CCK-8, normalized to control
CTGF = molecular target: T1, CTGF (Homo sapiens, UniProt P29279); experiment: DGC fluorescence labelling of human postmortem brain sections; parameters: The brain tissue samples of autopsy-confirmed AD patients were obtained from the Chinese Brain Bank Center; from tissue; host or cells: postmortem human brain sections (hippocampus, cortex) of AD patients and healthy controls; details: for fluorescence (FL) intensity of DGC: cortex section, ImageJ
T1 sequence (P29279 27-349): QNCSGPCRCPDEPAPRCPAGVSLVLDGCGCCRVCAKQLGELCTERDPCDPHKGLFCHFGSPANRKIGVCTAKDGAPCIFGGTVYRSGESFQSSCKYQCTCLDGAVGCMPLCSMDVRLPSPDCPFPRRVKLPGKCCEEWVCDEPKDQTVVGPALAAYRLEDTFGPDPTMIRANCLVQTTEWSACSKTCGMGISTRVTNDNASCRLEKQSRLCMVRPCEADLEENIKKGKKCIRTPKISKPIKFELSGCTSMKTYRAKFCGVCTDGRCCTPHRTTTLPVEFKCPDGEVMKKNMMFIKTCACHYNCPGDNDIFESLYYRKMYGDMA
Method: The brain tissue samples of autopsy-confirmed AD patients were obtained from the Chinese Brain Bank Center (CBBC) and Human Brain Bank, Central South University Xiangya School of Medicine. First, the brain sections were air-dried for 15 min at room temperature, followed by immersion in water. 5% H2O2 was applied for 15 min at room temperature. The sections were washed three times with PBS for 5 min each time. Then, tissue repair was performed using trypsin at a temperature of 37 °C for 5 min and washed three times with PBS. We chose 10% sheep serum to block for a duration of 20 min at 37°. Primary antibodies (CTGF antibody and Aβ antibody) were added to the sections overnight at 4 °C. FITC-labeled Goat Anti-Rabbit IgG (H + L) (1: dilution 1:200, Bioss, Cat#bs-0370R-FITC) was applied and incubated at 37 °C for 20 min in darkness. Subsequent washing steps involved rinsing the sections three times with PBS, each time lasting for 5 min while avoiding exposure to light. DAPI staining was performed, taking care to store the samples away from light during the 5-min procedure. Then observed by the CLSM system. Then, we chose the optimal incubation concentration of DGC (200 μM) was used to determine the conditions using DAB Horseradish Peroxidase Color Development Kit. After the brain sections were co-stained by DGC (200 μM) at 4 °C overnight, a DAB chromogenic agent was added to the brain tissue sections to explore whether DGC can catalyze DAB solutions to produce insoluble brown precipitate to attach the brain tissue sections with an optical microscope. Finally, the brain tissue sections were digested with aqua regia to measure the Au content by the ICP-MS system.

FL Intensity (CTGF; AD 1, Cortex section stained with DGC): 8.08
FL Intensity (CTGF; AD 1, Hippocampus section stained with DGC): 9.357
FL Intensity (CTGF; AD 2, Cortex section stained with DGC): 14.1982
FL Intensity (CTGF; AD 2, Hippocampus section stained with DGC): 17.484
fluorescence (FL) intensity of DGC (CTGF; Case 1 (healthy control, Thal 0), section 1): 0.3032
fluorescence (FL) intensity of DGC (CTGF; Case 1 (healthy control, Thal 0), section 2): 0.3289
fluorescence (FL) intensity of DGC (CTGF; Case 1 (healthy control, Thal 0), section 3): 0.3505
fluorescence (FL) intensity of DGC (CTGF; Case 2 (healthy control, Thal 0), section 1): 0.2446
fluorescence (FL) intensity of DGC (CTGF; Case 2 (healthy control, Thal 0), section 2): 0.3615
fluorescence (FL) intensity of DGC (CTGF; Case 2 (healthy control, Thal 0), section 3): 0.163
fluorescence (FL) intensity of DGC (CTGF; Case 3 (AD, Thal 1), section 1): 0.6904
fluorescence (FL) intensity of DGC (CTGF; Case 3 (AD, Thal 1), section 2): 0.8926
fluorescence (FL) intensity of DGC (CTGF; Case 3 (AD, Thal 1), section 3): 0.6063
fluorescence (FL) intensity of DGC (CTGF; Case 4 (AD, Thal 1), section 1): 0.9911
fluorescence (FL) intensity of DGC (CTGF; Case 4 (AD, Thal 1), section 2): 1.101
fluorescence (FL) intensity of DGC (CTGF; Case 4 (AD, Thal 1), section 3): 1.556
FL Intensity (CTGF; HC 1, Cortex section stained with DGC): 1.2358
FL Intensity (CTGF; HC 1, Hippocampus section stained with DGC): 1.043
FL Intensity (CTGF; HC 2, Cortex section stained with DGC): 1.632
FL Intensity (CTGF; HC 2, Hippocampus section stained with DGC): 6.0176
Substance: DGC: CTGF-targeting peptide-coated gold nanocluster: one Au26 gold nanocluster coated by eight DAG cyclic peptides, NIR-II and red fluorescence (CDAGRKQKC; also: cyclic peptide, ring not given here, eight peptides on one Au26 nanocluster via Cys Au-S bonds)
Cell viability (U87MG cells; 5 μM (Au content), replicate 1): 1.188
Cell viability (U87MG cells; 5 μM (Au content), replicate 2): 1.205
Cell viability (U87MG cells; 5 μM (Au content), replicate 3): 1.21
Cell viability (U87MG cells; 10 μM (Au content), replicate 1): 1.185
Cell viability (U87MG cells; 10 μM (Au content), replicate 2): 1.16
Cell viability (U87MG cells; 10 μM (Au content), replicate 3): 1.163
Cell viability (U87MG cells; 20 μM (Au content), replicate 1): 1.112
Cell viability (U87MG cells; 20 μM (Au content), replicate 2): 1.134
Cell viability (U87MG cells; 20 μM (Au content), replicate 3): 1.136
Cell viability (U87MG cells; 50 μM (Au content), replicate 1): 1.152
Cell viability (U87MG cells; 50 μM (Au content), replicate 2): 1.117
Cell viability (U87MG cells; 50 μM (Au content), replicate 3): 1.103
Cell viability (U87MG cells; 100 μM (Au content), replicate 1): 1.07
Cell viability (U87MG cells; 100 μM (Au content), replicate 2): 1.085
Cell viability (U87MG cells; 100 μM (Au content), replicate 3): 1.085
Cell viability (U87MG cells; 200 μM (Au content), replicate 1): 1.067
Cell viability (U87MG cells; 200 μM (Au content), replicate 2): 1.053
Cell viability (U87MG cells; 200 μM (Au content), replicate 3): 1.071
Cell viability (U87MG cells; 500 μM (Au content), replicate 1): 1.0892
Cell viability (U87MG cells; 500 μM (Au content), replicate 2): 1.102
Cell viability (U87MG cells; 500 μM (Au content), replicate 3): 1.058
cytotoxicity (U87MG cells; DGC incubation 24 h, CCK-8): did not cause any obvious cytotoxicity
Au content in whole brain, APP/PS1 vs age-matched WT [1]: more than twice
Cell viability (CTX TNA2 cells; replicate 1): 1.4709
Cell viability (CTX TNA2 cells; replicate 2): 1.567
Cell viability (CTX TNA2 cells; replicate 3): 1.589
